Experimental data reported in publication PMC4417188, “Molecular crowding enhances facilitated diffusion of two human DNA glycosylases”.

B1: DN nonspecific 15mer duplex (dsDNA)
DNA 1: AGGCGCATAGTCGCA
DNA 2: TGCGACTATGCGCCT

Key:
hUNG catalytic domain [1] = target: T1, hUNG catalytic domain (Homo sapiens, UniProt P13051 94-313); assay: stopped-flow 2-AP fluorescence (koff/kon); details: 2'-beta-fluoro-2'-deoxyuridine (Ubeta), 2-aminopurine adjacent, paired with T, 20 mM HEPES pH 7.5, 3 mM EDTA, 1 mM DTT, 0.002% Brij 35, 22 mM total Na+, with or without PEG 8K, temperature not stated for binding assays
T1 sequence (P13051 94-313): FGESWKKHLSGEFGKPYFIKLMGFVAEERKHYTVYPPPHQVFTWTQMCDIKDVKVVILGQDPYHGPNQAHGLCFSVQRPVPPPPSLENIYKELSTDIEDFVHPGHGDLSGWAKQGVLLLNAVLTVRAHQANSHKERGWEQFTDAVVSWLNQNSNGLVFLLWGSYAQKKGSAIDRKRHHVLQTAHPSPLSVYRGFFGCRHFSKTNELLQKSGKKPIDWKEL

hUNG catalytic domain [2] = target: T1, hUNG catalytic domain; assay: fluorescence anisotropy; dilute buffer; 20 mM HEPES pH 7.5, 3 mM EDTA, 1 mM DTT, 0.002% Brij 35, 22 mM total Na+; with or without PEG 8K; temperature not stated for binding assays; details: protein: recombinant; label: 5'-fluorescein (FAM); (complement implied by Watson-Crick pairing)
hUNG catalytic domain [3] = target: T1, hUNG catalytic domain; assay: fluorescence anisotropy; 20% PEG 8K; 20 mM HEPES pH 7.5, 3 mM EDTA, 1 mM DTT, 0.002% Brij 35, 22 mM total Na+; with or without PEG 8K; temperature not stated for binding assays; details: protein: recombinant; label: 5'-fluorescein (FAM); (complement implied by Watson-Crick pairing)

Molecule	Kd (hUNG catalytic domain [1]; 5% PEG 8K) [nM]	Kd (hUNG catalytic domain [1]; 10% PEG 8K) [nM]	Kd (hUNG catalytic domain [1]; 15% PEG 8K) [nM]	Kd (hUNG catalytic domain [1]; 20% PEG 8K, fast phase koff used) [nM]	Kd (hUNG catalytic domain [1]; dilute buffer, text of Methods gives 0.3 nM) [nM]	Kd (hUNG catalytic domain [2]) [nM]	Kd (hUNG catalytic domain [3]) [nM]
DS specific 19mer duplex (2-AP next to Ubeta)	0.31	0.2	0.7	1.2	0.4	–	–
B1	–	–	–	–	–	1300 ± 500	2300 ± 500
